According to patent US20220143136A1, “USE OF ANNEXINS IN PREVENTING AND TREATING MUSCLE MEMBRANE INJURY” (NORTHWESTERN UNIVERSITY, priority 2018, published 2022):
Like-named read-outs stand apart in the source and are kept apart here.

Tests used:
[1] = tested on: tibialis anterior muscles of wildtype mice; experiment: Cardiotoxin injury, intramuscular recombinant annexin A6, Evan's blue dye uptake; type: in vivo, mouse; conditions: for decrease in Evan's blue dye uptake (fluorescence over muscle area): 25 μg/ml intramuscular 2 hours before cardiotoxin, harvested 3 hours post injury, vs control muscle; for cardiotoxin-induced muscle damage, dye uptake by gross imaging: intramuscular pretreatment vs control
Experimental: Cardiotoxin Injury and analysis. […] Additionally, mice were injected intraperitoneally with Evans' blue dye at 5 μl/g body weight (E-2129; Sigma-Aldrich, St. Louis, Mo.) dissolved in phosphate-buffered saline at 10 mg/mL. […] Cardiotoxin injury was performed injecting 20 μl of a 10 μM cardiotoxin (discontinued, Sigma-Aldrich) solution in PBS in tibialis muscles in sedated animals (3% isoflurane, 0.8 l/min O2) 2 hours post pretreatment. Cardiotoxin was released down the midline of the muscle to induce a homogenous area of injury at the center of the muscle. 3 hours post cardiotoxin injection muscle was harvested and frozen in liquid nitrogen.
Immunofluorescence microscopy. Sections (10 μm thick) from the center of frozen-embedded muscles were collected on the cryostat (chamber, −20° C.; sample, −15° C.; catalog number CM1950; Leica, Wetzlar, Germany) for immunostaining. Tissues were fixed with 4% paraformaldehyde for 10 minutes on ice. Block and permeabilization were with 0.1% Triton (catalog number X-100; Sigma-Aldrich), 10% fetal bovine serum, and PBS for 60 minutes. For dystrophin detection, anti-dystrophin (ab15277; Abcam, Cambridge, Mass.) was used at a dilution of 1:100 overnight at 4° C. Sections were PBS rinsed, incubated with secondary antibody goat anti rabbit (A11008, Invitrogen) for 1 hour, PBS rinsed, and mounted in vectashield with DAPI (H-1200, Vector Laboratories). Imaging was performed using a Zeiss Axio Observer A1 microscope (Zeiss, Oberkochen, Germany), using a 10× objective. ZEN software (Zeiss, Jena, Germany) was used for acquiring images. Fluorescence quantitation and muscle area were performed using FIJI (NIH). Surface plots were created in FIJI (NIH). Fluorescence volume was quantified using Imaris Software v9.1.2.
Cardiotoxin Injury and analysis. […] Additionally, mice were injected with Evans' blue dye at 5 μl/g body weight (E-2129; Sigma-Aldrich, St. Louis, Mo.) dissolved in phosphate-buffered saline at 10 mg/mL cardiotoxin injury was performed injecting 20 μl of a 10 μM cardiotoxin solution in PBS in tibialis anterior or gastroc/soleus muscles in sedated animals (3% isoflurane, 0.8 l/min O2) 2 hours post pretreatment. Cardiotoxin was released down the midline of the muscle to induce a homogenous area of injury at the center of the muscle. 3 hours post cardiotoxin injection muscle was harvested.
Evans blue dye uptake. […] Fluorescence quantitation, surface plots, and muscle area were performed using FIJI (NIH). For whole tissue dye quantification, whole tissue was dissected, finely minced, weighed, and incubated at 55° C. in 1 mL of formamide for 2 hours. Spectrophotometric absorbance was measured at 620 nm.

Sgcg-null mice = conditions: 1 mg/kg, 5 injections over 48 hours, 60 minutes downhill running, vs BSA control
Experimental: Serum collection and CK analysis. Mice were sedated (3% isoflurane, 0.8 l/min O2) and blood was collected by means of retro-orbital puncture with heparinized capillary tubes (20-362-566; Fisher Scientific, Waltham, Mass.) into Microtainer™ Gold Top Serum Separator (365967 Becton Dickinson, Franklin Lakes, N.J.) and centrifuged at 8,000×g for 10 minutes. The plasma fractions were frozen and stored at −80° C. Serum creatine kinase (CK) was analyzed in duplicate for each mouse using the EnzyChrom Creatine Kinase Assay (ECPK-100; BioAssay Systems, Hayward, Calif.) following manufacturer's instructions as described (Demonbreun A R, Allen M V, Warner J L, Barefield D Y, Krishnan S, Swanson K E, et al. Enhanced Muscular Dystrophy from Loss of Dysferlin Is Accompanied by Impaired Annexin A6 Translocation after Sarcolemmal Disruption. Am J Pathol. 2016; 186(6):1610-22). Results were acquired with the Synergy HTX multi-mode plate reader (BioTek®, Winooski, Vt.).
Sgcg-null mice were sedated (3% isoflurane, 0.8 l/min O2) and pre-exercise blood was collected by means of left retro-orbital puncture as described above. While sedated, mice were then injected 1 mg/kg recombinant annexin A6 (5186-A6-050, R&D systems) or PBS+1 mg/kg BSA into the right retro-orbital cavity at 9 am and 5 μm for 5 consecutive injection over 48 hours. […] Serum creatine kinase (CK) was analyzed as described above. […]

Isolated FDB fibers = experiment: Single cell Ca2+ and shortening measurements; type: cell-based, mouse; conditions: annexin A6 overexpression vs control fibers
Experimental: Single cell Ca^2+ and shortening measurements. Isolated FDB fibers were plated on laminin coated glass-bottomed 35 mm dishes for one hour and then cultured overnight in DMEM with 10% FBS and 1% penicillin/streptomycin at 37° C. in a 10% CO2 incubator. One hour prior to data acquisition, the medium was removed and cells were incubated in Tyrode buffer (119 mM NaCl, 5 mM KCl, 25 mM HEPES, 2 mM CaCl2, 2 mM MgCl2) with 10 μM Indo-1 AM (TefLabs) for 1 hour at 37° C. in a 10% CO2 incubator. Dishes were then filled with Tyrode buffer, mounted on a custom stage and platinum pacing electrodes were inserted into the dish. Stimulation was elicited using a 701C high-powered stimulator controlled by the 950A software (Aurora Scientific). Stimulation was performed at 40 and 80 Hz, 5 ms pulse width, 100 ms duration. Ratiometric Ca^2+ signals were collected with two photomultiplier tubes and a FluoroDaq controller. Video sarcomere length was recorded with a high-speed camera and fast Fourier transform using the Aurora Scientific 900B-VSL system (Aurora, Ontario). Ten transients were collected over 20 seconds and averaged together per cell per frequency.

B1: recombinant annexin A6: recombinant human annexin A6 protein with C-terminal HIS tag (5186-A6-050, R&D systems); mouse protein from Northwestern core in one cohort (protein, UniProt P08133 2-673, looked up)
Annexin A6: AKPAQGAKYRGSIHDFPGFDPNQDAEALYTAMKGFGSDKEAILDIITSRSNRQRQEVCQSYKSLYGKDLIADLKYELTGKFERLIVGLMRPPAYCDAKEIKDAISGIGTDEKCLIEILASRTNEQMHQLVAAYKDAYERDLEADIIGDTSGHFQKMLVVLLQGTREEDDVVSEDLVQQDVQDLYEAGELKWGTDEAQFIYILGNRSKQHLRLVFDEYLKTTGKPIEASIRGELSGDFEKLMLAVVKCIRSTPEYFAERLFKAMKGLGTRDNTLIRIMVSRSELDMLDIREIFRTKYEKSLYSMIKNDTSGEYKKTLLKLSGGDDDAAGQFFPEAAQVAYQMWELSAVARVELKGTVRPANDFNPDADAKALRKAMKGLGTDEDTIIDIITHRSNVQRQQIRQTFKSHFGRDLMTDLKSEISGDLARLILGLMMPPAHYDAKQLKKAMEGAGTDEKALIEILATRTNAEIRAINEAYKEDYHKSLEDALSSDTSGHFRRILISLATGHREEGGENLDQAREDAQVAAEILEIADTPSGDKTSLETRFMTILCTRSYPHLRRVFQEFIKMTNYDVEHTIKKEMSGDVRDAFVAIVQSVKNKPLFFADKLYKSMKGAGTDEKTLTRIMVSRSEIDLLNIRREFIEKYDKSLHQAIEGDTSGDFLKALLALCGGED
modifications: C-terminal His tag
notes: recombinant human annexin A6 protein with C-terminal HIS tag (5186-A6-050, R&D systems); mouse protein from Northwestern core in one cohort
decrease in Evan's blue dye uptake (fluorescence over muscle area) [1]: 50% | decrease in Evan's blue dye uptake (fluorescence over muscle area) ([1]; listed as rANXA6): approximately 50% | cardiotoxin-induced muscle damage, dye uptake by gross imaging [1]: reduced | cardiotoxin-induced muscle damage, dye uptake by gross imaging ([1]; listed as rANXA6): decreased | fold change in serum CK post/pre running (Sgcg-null mice): reduced | fold change in serum CK post/pre running (Sgcg-null mice; listed as rANXA6): significantly reduced

B2: annexin A6: annexin A6 with carboxyl-terminal turboGFP or tdTomato tag, expressed from plasmid electroporated into myofibers (protein, UniProt P14824 2-673, looked up)
Annexin A6: AKIAQGAMYRGSVHDFPEFDANQDAEALYTAMKGFGSDKESILELITSRSNKQRQEICQNYKSLYGKDLIEDLKYELTGKFERLIVNLMRPLAYCDAKEIKDAISGVGTDEKCLIEILASRTNEQMHQLVAAYKDAYERDLESDIIGDTSGHFQKMLVVLLQGTRENDDVVSEDLVQQDVQDLYEAGELKWGTDEAQFIYILGNRSKQHLRLVFDEYLKTTGKPIEASIRGELSGDFEKLMLAVVKCIRSTPEYFAERLFKAMKGLGTRDNTLIRIMVSRSELDMLDIREIFRTKYEKSLYSMIKNDTSGEYKKALLKLCGGDDDAAGQFFPEAAQVAYQMWELSAVSRVELKGTVCAANDFNPDADAKALRKAMKGIGTDEATIIDIVTHRSNAQRQQIRQTFKSHFGRDLMADLKSEISGDLARLILGLMMPPAHYDAKQLKKAMEGAGTDEKTLIEILATRTNAEIRAINEAYKEDYHKSLEDALSSDTSGHFRRILISLATGNREEGGENRDQAQEDAQVAAEILEIADTPSGDKTSLETRFMTVLCTRSYPHLRRVFQEFIKKTNYDIEHVIKKEMSGDVKDAFVAIVQSVKNKPLFFADKLYKSMKGAGTDEKTLTRVMVSRSEIDLLNIRREFIEKYDKSLHQAIEGDTSGDFMKALLALCGGED
modifications: C-terminal turboGFP or tdTomato tag
notes: annexin A6 with carboxyl-terminal turboGFP or tdTomato tag, expressed from plasmid electroporated into myofibers
Ca2+ cycling (Indo-1) (Isolated FDB fibers; 40 or 80 Hz stimulation): no differences | unloaded cell shortening (Isolated FDB fibers): unaffected
